The conditions of the data set: Thermal, whole UniProt chain shown.
[1] abbreviates: Glycine max, pH 7, DSC, HEPES/MOPS/ACES/Tris/triethanolamine/phosphate 17 mM/17 mM/17 mM/10 mM/13 mM/10 mM.
The mark [2] stands for this setting: Bos taurus, pH 6.5, Absorbance, None, reversible: no.
Setting [3] is: Bos taurus, pH 7.4, Absorbance, phosphate, reversible: no.

B1: Tryptophan synthase alpha chain wild type, P0A877 (protein)
chain: MERYESLFAQLKERKEGAFVPFVTLGDPGIEQSLKIIDTLIEAGADALELGIPFSDPLADGPTIQNATLRAFAAGVTPAQCFEMLALIRQKHPTIPIGLLMYANLVFNKGIDEFYAQCEKVGVDSVLVADVPVEESAPFRQAALRHNVAPIFICPPNADDDLLRQIASYGRGYTYLLSRAGVTGAENRAALPLNHLVAKLKEYNAAPPLQGFGISAPDQVKAAIDAGAAGAISGSAIVKIIEQHINEPEKMLAALKVFVQPMKAATRS
For orientation: Tm means the temperature at the midpoint of the melting transition. As for B1, for the setting “Escherichia coli (strain K12), pH 8.98, DSC, sodium tetraborate 1 mM”, the Tm was found to be 54.2 °C.

B2: Trypsin inhibitor B wild type, P01071 (protein)
chain: DFVLDNEGNPLSNGGTYYILSDITAFGGIRAAPTGNERCPLTVVQSRNELDKGIGTIISSPFRIRFIAEGNPLRLKFDSFAVIMLCVGIPTEWSVVEDLPEGPAVKIGENKDAVDGWFRIERVSDDEFNNYKLVFCTQQAEDDKCGDIGISIDHDDGTRRLVVSKNKPLVVQFQKVDKESL
Regarding B2, under setting [1], the Tm amounted to 59 °C, the “heat capacity change of unfolding” value was 2.63 kcal/mol/K and the “unfolding enthalpy (calorimetric)” value was determined as 103 kcal/mol.

B3: Beta-lactoglobulin wild type, P02754 (protein)
chain: MKCLLLALALTCGAQALIVTQTMKGLDIQKVAGTWYSLAMAASDISLLDAQSAPLRVYVEELKPTPEGDLEILLQKWENGECAQKKIIAEKTKIPAVFKIDALNENKVLVLDTDYKKYLLFCMENSAEPEQSLACQCLVRTPEVDDEALEKFDKALKALPMHIRLSFNPTQLEEQCHI
For the protein B3, the Tm is 82 °C (Bos taurus, pH 4, DSC, Unknown); 80.1 °C under setting [2]; 65.9 °C under setting [3]. Moreover, the “unfolding enthalpy (van 't Hoff)” value came out at 55.5 kcal/mol under setting [2] and 39.9 kcal/mol under setting [3].

The record behind these values is FireProtDB.
